{"source": "paper doi:10.1101/474478", "about": "(bioRxiv, 2018)", "proteins": {"B1": {"name": "mouse Nudt12 catalytic domain (residues 126-462), E219A/E220A/E221A triple mutant (domain or fragment, UniProt Q9DCN1 126-462, looked up)", "chain": "LDRRSDKRNNSDWLQAKESHPTTVYLLFSDLNPLVTLGGNKESSQQPEVRLCQLNYPDVKGYLAQPEKITLVFLGVELEMRKGSPAQAGGVPEAAADGLVAWFALGIEPGAAEEFKQRHENCYFLHPPMPALLQLKEKEAGVVAQARSVLAWHSRYKFCPTCGSATKIEEGGYKRVCVRETCPSLQGVHNTSYPRVDPVVIMQVIHPDGTKCLLGRQKRFPPGMFTCLAGFIEPGETIEDAVRREVEEESGVKVGHVQYVSCQPWPMPSSLMIGCLAVAVSTEIKVDKNEIEDARWFTREQVVDVLTKGKQQAFFVPPSRAIAHQLIKHWVGMNPNL"}}, "molecular_target": "the molecule itself", "test": "crystal structure"}
{"protein": "B1", "values": [{"measurement": "stoichiometry N", "result": 2}]}
